Source: patent US20200369776A1 (ADAGENE, published 2020)
Changes are numbered by the printed parent chain. Numbers in names are those of the source.

T1: human CD137 mutant Hu_FSS53AAA on HEK293F cells (human, UniProt Q07011 18-255)
T1 chain: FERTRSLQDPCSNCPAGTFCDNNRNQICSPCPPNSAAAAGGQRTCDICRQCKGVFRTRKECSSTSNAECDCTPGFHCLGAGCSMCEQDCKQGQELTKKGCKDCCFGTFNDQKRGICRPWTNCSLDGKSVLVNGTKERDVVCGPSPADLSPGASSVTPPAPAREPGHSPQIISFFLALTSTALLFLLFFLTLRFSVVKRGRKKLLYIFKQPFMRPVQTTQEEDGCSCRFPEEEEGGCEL

B1: reference antibody AC1121 (antibody, V domains shown)
VH: QVQLQQWGAGLLKPSETLSLTCAVYGGSFSGYYWSWIRQSPEKGLEWIGEINHGGYVTYNPSLESRVTISVDTSKNQFSLKLSSVTAADTAVYYCARDYGPGNYDWYFDLWGRGTLVTVSS
VL: EIVLTQSPATLSLSPGERATLSCRASQSVSSYLAWYQQKPGQAPRLLIYDASNRATGIPARFSGSGSGTDFTLTISSLEPEDFAVYYCQQRSNWPPALTFGGGTKVEIK
B2: AG10058 (antibody, human IgG4 S228P, kappa, V domains shown)
VH: EVQLVESGGGLVQPGGSLRLSCAASGFSLSTSGVGVGWIRQAPGKGLEWLALIDWDDDKYYSPSLKSRLTISRDNSKNTLYLQLNSLRAEDTAVYYCARGGSDTVLGDWFAYWGQGTLVTVSS
VL: DIQLTQSPSSLSASVGDRVTITCRASQSVSPYLAWYQQKPGKAPKLLIYDASSLESGVPSRFSGSGSGTDFTLTISSLQPEDFATYYCQQGYSLWTFGQGTKVEIKR
notes: IgG4 (S241P)
B3: AG10059 (antibody, human IgG4 S228P, kappa, V domains shown)
VH: EVQLVESGGGLVQPGGSLRLSCAASGYSITSGHYWAWIRQAPGKGLEWVSSISGYGSTTYYADSVKGRFTISRDNSKNTLYLQLNSLRAEDTAVYYCARGGSDAVLGDWFAYWGQGTLVTVSS
VL: B2 VL with S28G, V29I, S30G, P31S, Y32F, S53N, S56T, S93Y
notes: IgG4 (S241P)

Experiments:
Assay in all cases: FACS, HEK293F
[1] = target: T1, human CD137 mutant Hu_FSS53AAA on …
Description: (§1) Transfected cells were washed in pre-chilled staining buffer (PBS supplemented with 2% FBS), then incubated with 100 nM test antibodies for 1 hr on ice. […] Samples were washed once with staining buffer prior to analysis by flow cytometry.
(§2) To determine the binding regions of the tested antibodies at amino acid residue level, a series of mutations (Table 5) were made at the extracellular domain of human CD137. These CD137 mutation plasmids were used to transfect HEK293F cells.

[2] = target: human CD137 mutant Hu_FN125AA on HEK293F cells (human, UniProt Q07011 18-255)
Description: as §1, §2

[3] = target: human CD137 mutant Hu_PW135AA on HEK293F cells (human, UniProt Q07011 18-255)
Description: as §1, §2

[4] = target: human CD137 mutant Hu_GT150AA on HEK293F cells (human, UniProt Q07011 18-255)
Description: as §1, §2

Binder | binding result [1] | binding result [2] | binding result [3] | binding result [4]
B1 | binds | binds | binds | binds
B2 |  |  | binds | binds
B3 |  |  | binds | binds
